The record followed here is paper PMC3472523 (2012).

Positions of bridges follow the written chain, without caps; N, C: chain ends. fluorescein = fluorescein, an N-terminal fluorescent label

Broadly, the Kd is the concentration at which binding is half-saturated. Low readings indicate a tighter complex, high ones a looser complex. What is called Ki is a measure of affinity in units of concentration, obtained from inhibition or displacement. Higher therefore signals a looser hold on the target.

To fix the notation:
B1: Fl-1 (Bph-cross-linked Noxa peptide 1) (peptide)
chain: fluorescein-AACLRRIGDCVNLRQKLLN-NH2
modifications: linker 3-10 via biphenyl
B2: Noxa peptide 4 (peptide)
chain: AACLRAIGDCVNLAQKLLN
HELM: PEPTIDE1{[ac].A.A.[dC].L.R.A.I.G.D.C.V.N.L.A.Q.K.L.L.N.[am]}|CHEM1{[c1cc(-c2ccc(C[*:2])cc2)ccc1C[*:1]]}$PEPTIDE1,CHEM1,4:R3-1:R1|PEPTIDE1,CHEM1,11:R3-1:R2$$$V2.0
SMILES: CC[C@H](C)[C@@H]1NC(=O)[C@H](C)NC(=O)[C@H](CCCNC(=N)N)NC(=O)[C@H](CC(C)C)NC(=O)[C@H](NC(=O)[C@H](C)NC(=O)[C@H](C)NC(C)=O)CSCc2ccc(cc2)-c2ccc(cc2)CSC[C@@H](C(=O)N[C@H](C(=O)N[C@@H](CC(N)=O)C(=O)N[C@@H](CC(C)C)C(=O)N[C@@H](C)C(=O)N[C@@H](CCC(N)=O)C(=O)N[C@@H](CCCCN)C(=O)N[C@@H](CC(C)C)C(=O)N[C@@H](CC(C)C)C(=O)N[C@@H](CC(N)=O)C(N)=O)C(C)C)NC(=O)[C@H](CC(=O)O)NC(=O)CNC1=O
B3: Noxa peptide 3 (peptide)
chain: AACLRAIGDCVNLRQKLLN
HELM: PEPTIDE1{[ac].A.A.[dC].L.R.A.I.G.D.C.V.N.L.R.Q.K.L.L.N.[am]}|CHEM1{[c1cc(-c2ccc(C[*:2])cc2)ccc1C[*:1]]}$PEPTIDE1,CHEM1,4:R3-1:R1|PEPTIDE1,CHEM1,11:R3-1:R2$$$V2.0
SMILES: CC[C@H](C)[C@@H]1NC(=O)[C@H](C)NC(=O)[C@H](CCCNC(=N)N)NC(=O)[C@H](CC(C)C)NC(=O)[C@H](NC(=O)[C@H](C)NC(=O)[C@H](C)NC(C)=O)CSCc2ccc(cc2)-c2ccc(cc2)CSC[C@@H](C(=O)N[C@H](C(=O)N[C@@H](CC(N)=O)C(=O)N[C@@H](CC(C)C)C(=O)N[C@@H](CCCNC(=N)N)C(=O)N[C@@H](CCC(N)=O)C(=O)N[C@@H](CCCCN)C(=O)N[C@@H](CC(C)C)C(=O)N[C@@H](CC(C)C)C(=O)N[C@@H](CC(N)=O)C(N)=O)C(C)C)NC(=O)[C@H](CC(=O)O)NC(=O)CNC1=O
B4: Noxa peptide 7 (peptide)
chain: AACLRRIGDCVNLRQKLLN
HELM: PEPTIDE1{[COC(=O)[*:2]].[meA].[meA].[dC].L.R.R.I.G.D.C.V.N.L.R.Q.K.L.L.N.[am]}|CHEM1{[c1cc(-c2ccc(C[*:2])cc2)ccc1C[*:1]]}$PEPTIDE1,CHEM1,4:R3-1:R1|PEPTIDE1,CHEM1,11:R3-1:R2$$$V2.0
SMILES: CC[C@H](C)[C@@H]1NC(=O)[C@H](CCCNC(=N)N)NC(=O)[C@H](CCCNC(=N)N)NC(=O)[C@H](CC(C)C)NC(=O)[C@H](NC(=O)[C@H](C)N(C)C(=O)[C@H](C)N(C)C(=O)OC)CSCc2ccc(cc2)-c2ccc(cc2)CSC[C@@H](C(=O)N[C@H](C(=O)N[C@@H](CC(N)=O)C(=O)N[C@@H](CC(C)C)C(=O)N[C@@H](CCCNC(=N)N)C(=O)N[C@@H](CCC(N)=O)C(=O)N[C@@H](CCCCN)C(=O)N[C@@H](CC(C)C)C(=O)N[C@@H](CC(C)C)C(=O)N[C@@H](CC(N)=O)C(N)=O)C(C)C)NC(=O)[C@H](CC(=O)O)NC(=O)CNC1=O
B5: Noxa peptide 5 (peptide)
chain: AACLRAIGDCVNLAQALLN
HELM: PEPTIDE1{[ac].A.A.[dC].L.R.A.I.G.D.C.V.N.L.A.Q.A.L.L.N.[am]}|CHEM1{[c1cc(-c2ccc(C[*:2])cc2)ccc1C[*:1]]}$PEPTIDE1,CHEM1,4:R3-1:R1|PEPTIDE1,CHEM1,11:R3-1:R2$$$V2.0
SMILES: CC[C@H](C)[C@@H]1NC(=O)[C@H](C)NC(=O)[C@H](CCCNC(=N)N)NC(=O)[C@H](CC(C)C)NC(=O)[C@H](NC(=O)[C@H](C)NC(=O)[C@H](C)NC(C)=O)CSCc2ccc(cc2)-c2ccc(cc2)CSC[C@@H](C(=O)N[C@H](C(=O)N[C@@H](CC(N)=O)C(=O)N[C@@H](CC(C)C)C(=O)N[C@@H](C)C(=O)N[C@@H](CCC(N)=O)C(=O)N[C@@H](C)C(=O)N[C@@H](CC(C)C)C(=O)N[C@@H](CC(C)C)C(=O)N[C@@H](CC(N)=O)C(N)=O)C(C)C)NC(=O)[C@H](CC(=O)O)NC(=O)CNC1=O
B6: Noxa peptide 8 (peptide)
chain: AACLRAIGDCVNLAQALLN
HELM: PEPTIDE1{[COC(=O)[*:2]].[meA].[meA].[dC].L.R.A.I.G.D.C.V.N.L.A.Q.A.L.L.N.[am]}|CHEM1{[c1cc(-c2ccc(C[*:2])cc2)ccc1C[*:1]]}$PEPTIDE1,CHEM1,4:R3-1:R1|PEPTIDE1,CHEM1,11:R3-1:R2$$$V2.0
SMILES: CC[C@H](C)[C@@H]1NC(=O)[C@H](C)NC(=O)[C@H](CCCNC(=N)N)NC(=O)[C@H](CC(C)C)NC(=O)[C@H](NC(=O)[C@H](C)N(C)C(=O)[C@H](C)N(C)C(=O)OC)CSCc2ccc(cc2)-c2ccc(cc2)CSC[C@@H](C(=O)N[C@H](C(=O)N[C@@H](CC(N)=O)C(=O)N[C@@H](CC(C)C)C(=O)N[C@@H](C)C(=O)N[C@@H](CCC(N)=O)C(=O)N[C@@H](C)C(=O)N[C@@H](CC(C)C)C(=O)N[C@@H](CC(C)C)C(=O)N[C@@H](CC(N)=O)C(N)=O)C(C)C)NC(=O)[C@H](CC(=O)O)NC(=O)CNC1=O
B7: Noxa peptide 2 (peptide)
chain: AACLRRIGDCVNLRQKLLN
HELM: PEPTIDE1{[ac].A.A.[dC].L.R.R.I.G.D.C.V.N.L.R.Q.K.L.L.N.[am]}|CHEM1{[c1cc(-c2ccc(C[*:2])cc2)ccc1C[*:1]]}$PEPTIDE1,CHEM1,4:R3-1:R1|PEPTIDE1,CHEM1,11:R3-1:R2$$$V2.0
SMILES: CC[C@H](C)[C@@H]1NC(=O)[C@H](CCCNC(=N)N)NC(=O)[C@H](CCCNC(=N)N)NC(=O)[C@H](CC(C)C)NC(=O)[C@H](NC(=O)[C@H](C)NC(=O)[C@H](C)NC(C)=O)CSCc2ccc(cc2)-c2ccc(cc2)CSC[C@@H](C(=O)N[C@H](C(=O)N[C@@H](CC(N)=O)C(=O)N[C@@H](CC(C)C)C(=O)N[C@@H](CCCNC(=N)N)C(=O)N[C@@H](CCC(N)=O)C(=O)N[C@@H](CCCCN)C(=O)N[C@@H](CC(C)C)C(=O)N[C@@H](CC(C)C)C(=O)N[C@@H](CC(N)=O)C(N)=O)C(C)C)NC(=O)[C@H](CC(=O)O)NC(=O)CNC1=O
B8: Noxa peptide 1 (peptide)
chain: AACLRRIGDCVNLRQKLLN
HELM: PEPTIDE1{[ac].A.A.C.L.R.R.I.G.D.C.V.N.L.R.Q.K.L.L.N.[am]}|CHEM1{[c1cc(-c2ccc(C[*:2])cc2)ccc1C[*:1]]}$PEPTIDE1,CHEM1,4:R3-1:R1|PEPTIDE1,CHEM1,11:R3-1:R2$$$V2.0
SMILES: CC[C@H](C)[C@@H]1NC(=O)[C@H](CCCNC(=N)N)NC(=O)[C@H](CCCNC(=N)N)NC(=O)[C@H](CC(C)C)NC(=O)[C@@H](NC(=O)[C@H](C)NC(=O)[C@H](C)NC(C)=O)CSCc2ccc(cc2)-c2ccc(cc2)CSC[C@@H](C(=O)N[C@H](C(=O)N[C@@H](CC(N)=O)C(=O)N[C@@H](CC(C)C)C(=O)N[C@@H](CCCNC(=N)N)C(=O)N[C@@H](CCC(N)=O)C(=O)N[C@@H](CCCCN)C(=O)N[C@@H](CC(C)C)C(=O)N[C@@H](CC(C)C)C(=O)N[C@@H](CC(N)=O)C(N)=O)C(C)C)NC(=O)[C@H](CC(=O)O)NC(=O)CNC1=O
B9: Noxa peptide 6 (peptide)
chain: AACLRRIGDCVNLRQKLLN
HELM: PEPTIDE1{[COC(=O)[*:2]].[meA].A.[dC].L.R.R.I.G.D.C.V.N.L.R.Q.K.L.L.N.[am]}|CHEM1{[c1cc(-c2ccc(C[*:2])cc2)ccc1C[*:1]]}$PEPTIDE1,CHEM1,4:R3-1:R1|PEPTIDE1,CHEM1,11:R3-1:R2$$$V2.0
SMILES: CC[C@H](C)[C@@H]1NC(=O)[C@H](CCCNC(=N)N)NC(=O)[C@H](CCCNC(=N)N)NC(=O)[C@H](CC(C)C)NC(=O)[C@H](NC(=O)[C@H](C)NC(=O)[C@H](C)N(C)C(=O)OC)CSCc2ccc(cc2)-c2ccc(cc2)CSC[C@@H](C(=O)N[C@H](C(=O)N[C@@H](CC(N)=O)C(=O)N[C@@H](CC(C)C)C(=O)N[C@@H](CCCNC(=N)N)C(=O)N[C@@H](CCC(N)=O)C(=O)N[C@@H](CCCCN)C(=O)N[C@@H](CC(C)C)C(=O)N[C@@H](CC(C)C)C(=O)N[C@@H](CC(N)=O)C(N)=O)C(C)C)NC(=O)[C@H](CC(=O)O)NC(=O)CNC1=O

Bcl-xL, sequence (Q07817 whole entry): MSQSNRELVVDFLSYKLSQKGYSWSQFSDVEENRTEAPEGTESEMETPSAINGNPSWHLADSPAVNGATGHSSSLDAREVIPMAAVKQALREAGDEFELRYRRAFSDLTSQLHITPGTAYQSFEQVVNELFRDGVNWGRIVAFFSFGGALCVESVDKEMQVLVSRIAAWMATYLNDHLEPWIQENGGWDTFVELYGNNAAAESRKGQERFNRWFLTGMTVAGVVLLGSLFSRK

One assay has as its target Bcl-xL (Homo sapiens, UniProt Q07817). The assay can be described thus: fluorescence polarization. (In fluorescence polarisation assays a small probe gives low polarisation when free and higher when bound to something large.)
B1 returned a Kd greater than 1000 nM.

The target of a further assay is T1, Mcl-1 (Mus musculus, UniProt P97287).
T1 chain: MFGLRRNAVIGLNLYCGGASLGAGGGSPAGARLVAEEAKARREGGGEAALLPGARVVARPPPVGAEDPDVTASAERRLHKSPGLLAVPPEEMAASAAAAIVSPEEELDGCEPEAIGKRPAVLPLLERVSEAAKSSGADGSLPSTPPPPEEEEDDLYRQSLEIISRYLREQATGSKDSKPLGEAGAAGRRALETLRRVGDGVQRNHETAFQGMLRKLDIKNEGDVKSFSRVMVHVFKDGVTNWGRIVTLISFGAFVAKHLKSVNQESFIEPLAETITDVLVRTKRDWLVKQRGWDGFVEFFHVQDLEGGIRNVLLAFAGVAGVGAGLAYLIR
Description: competitive fluorescence polarization.
Turning to B2, the Ki was 28 nM.
Regarding B3, the Ki worked out at 23 nM.
On to B4, for which affinity was put at a Ki of 22 nM.
B5 yielded a Ki of 29 nM. The Ki values of the last two molecules are within 1.5-fold of each other.
In turn, B6 gave a Ki of 22 nM.
Still for that read-out and setting: under B7 stands 54 nM.
B8 had an inhibitory constant (Ki) of 10 nM.
In turn, B9 displayed a Ki of 32 nM.
